Columns and labels:
VEGFR-2 on Ba/F3 cells = target: T1, VEGFR-2 on Ba/F3 cells (UniProt P35968 20-1356, limits assumed); experiment: flow cytometry, cell surface binding to Ba/F3 pMIY cells expressing VEGFR, MFI ratio normalized to IgG1, mean ± s.d. of n=3
T1 construct: whole, on cells

c-KIT on Ba/F3 cells = target: T2, c-KIT on Ba/F3 cells (UniProt P10721 26-976, limits assumed); experiment: flow cytometry, cell surface binding to Ba/F3 pMIY cells expressing c-KIT, MFI ratio normalized to IgG1, mean ± s.d. of n=3
T2 construct: whole, on cells

[1] = target: T3, rat FLT3 expressed on Ba/F3 cells (rat, UniProt A0A0G2JW59 27-982); experiment: flow cytometry, cell surface binding to Ba/F3 pMIY cells expressing rFLT3wt, MFI ratio normalized to IgG1, mean ± s.d. of n=3
T3 construct: whole, on cells
T3 sequence: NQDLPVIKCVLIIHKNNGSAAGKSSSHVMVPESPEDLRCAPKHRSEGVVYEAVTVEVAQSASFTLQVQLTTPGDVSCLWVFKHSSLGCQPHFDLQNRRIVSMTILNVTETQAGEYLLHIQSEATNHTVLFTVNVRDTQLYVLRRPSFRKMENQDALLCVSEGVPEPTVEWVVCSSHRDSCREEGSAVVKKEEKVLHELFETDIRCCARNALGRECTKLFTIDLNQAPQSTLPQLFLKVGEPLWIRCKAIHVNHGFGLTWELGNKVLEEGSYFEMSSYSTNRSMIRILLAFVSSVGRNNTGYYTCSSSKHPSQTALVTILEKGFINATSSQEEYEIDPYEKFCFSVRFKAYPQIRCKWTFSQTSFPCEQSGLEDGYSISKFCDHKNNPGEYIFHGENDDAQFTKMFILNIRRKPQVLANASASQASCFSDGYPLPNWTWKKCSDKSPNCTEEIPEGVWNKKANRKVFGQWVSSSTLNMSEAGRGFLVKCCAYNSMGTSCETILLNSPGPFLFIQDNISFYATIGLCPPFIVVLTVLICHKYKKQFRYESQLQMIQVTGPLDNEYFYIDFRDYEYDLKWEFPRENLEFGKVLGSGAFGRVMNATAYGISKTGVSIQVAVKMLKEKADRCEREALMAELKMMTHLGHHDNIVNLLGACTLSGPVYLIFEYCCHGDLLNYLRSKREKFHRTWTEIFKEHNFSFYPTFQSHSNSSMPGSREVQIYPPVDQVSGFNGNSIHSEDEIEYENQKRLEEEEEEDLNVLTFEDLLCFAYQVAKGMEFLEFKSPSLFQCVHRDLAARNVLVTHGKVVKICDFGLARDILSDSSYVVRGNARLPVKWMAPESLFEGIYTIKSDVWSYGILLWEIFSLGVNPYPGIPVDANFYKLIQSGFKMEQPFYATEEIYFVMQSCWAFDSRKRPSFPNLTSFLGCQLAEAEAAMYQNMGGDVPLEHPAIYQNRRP

CSF1R on Ba/F3 cells = target: T4, CSF1R on Ba/F3 cells (UniProt P07333 20-972, limits assumed); experiment: flow cytometry, cell surface binding to Ba/F3 pMIY cells expressing CSF-1R, MFI ratio normalized to IgG1, mean ± s.d. of n=3
T4 construct: whole, on cells

[2] = target: T5, recombinant human FLT3 protein (human, UniProt P36888 27-541); experiment: ELISA with recombinant human FLT3 coated to the plate (results of FIG. 13 summarized)
T5 construct: also called recombinant FLT3 protein; human recombinant FLT3 protein (10445-H08H, Sino Biological)
T5 sequence: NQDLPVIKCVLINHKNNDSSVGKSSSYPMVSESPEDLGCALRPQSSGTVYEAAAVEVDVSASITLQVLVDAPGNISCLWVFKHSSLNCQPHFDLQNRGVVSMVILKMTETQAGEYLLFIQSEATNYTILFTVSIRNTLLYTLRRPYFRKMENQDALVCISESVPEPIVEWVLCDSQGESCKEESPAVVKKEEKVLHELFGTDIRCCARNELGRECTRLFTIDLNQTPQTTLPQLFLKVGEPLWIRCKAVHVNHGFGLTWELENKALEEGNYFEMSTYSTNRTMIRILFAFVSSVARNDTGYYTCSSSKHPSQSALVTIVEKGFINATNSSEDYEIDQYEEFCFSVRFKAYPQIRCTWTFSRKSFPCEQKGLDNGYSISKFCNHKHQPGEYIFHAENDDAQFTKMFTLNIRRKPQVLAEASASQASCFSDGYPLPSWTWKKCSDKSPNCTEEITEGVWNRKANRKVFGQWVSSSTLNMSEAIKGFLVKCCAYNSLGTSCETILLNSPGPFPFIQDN
Description: Maxisorp plates were coated with human recombinant FLT3 protein (10445-H08H, Sino Biological). […] For detection, Attophos Fluorescent Substrate System (S1000, Promega) was applied. The fluorescence was read with excitation of 405 nm and emission at 500-550 nm. The calculation of the dissociation constant KD was performed using GraphPad Prism version 9.4.0.
The 12 clones were subsequently analysed in ELISA assays (FIG. 13). Therefore, recombinant human FLT3 was coated on plates and incubated with the antibody candidates. […] Mean±s.d. of n=3 biological replicates.

PDGFRα on Ba/F3 cells = target: T6, PDGFRα on Ba/F3 cells (UniProt P16234 24-1089, limits assumed); experiment: flow cytometry, cell surface binding to Ba/F3 pMIY cells expressing PDGFRα, MFI ratio normalized to IgG1, mean ± s.d. of n=3
T6 construct: whole, on cells
T6 sequence (P16234 24-1089 limits assumed): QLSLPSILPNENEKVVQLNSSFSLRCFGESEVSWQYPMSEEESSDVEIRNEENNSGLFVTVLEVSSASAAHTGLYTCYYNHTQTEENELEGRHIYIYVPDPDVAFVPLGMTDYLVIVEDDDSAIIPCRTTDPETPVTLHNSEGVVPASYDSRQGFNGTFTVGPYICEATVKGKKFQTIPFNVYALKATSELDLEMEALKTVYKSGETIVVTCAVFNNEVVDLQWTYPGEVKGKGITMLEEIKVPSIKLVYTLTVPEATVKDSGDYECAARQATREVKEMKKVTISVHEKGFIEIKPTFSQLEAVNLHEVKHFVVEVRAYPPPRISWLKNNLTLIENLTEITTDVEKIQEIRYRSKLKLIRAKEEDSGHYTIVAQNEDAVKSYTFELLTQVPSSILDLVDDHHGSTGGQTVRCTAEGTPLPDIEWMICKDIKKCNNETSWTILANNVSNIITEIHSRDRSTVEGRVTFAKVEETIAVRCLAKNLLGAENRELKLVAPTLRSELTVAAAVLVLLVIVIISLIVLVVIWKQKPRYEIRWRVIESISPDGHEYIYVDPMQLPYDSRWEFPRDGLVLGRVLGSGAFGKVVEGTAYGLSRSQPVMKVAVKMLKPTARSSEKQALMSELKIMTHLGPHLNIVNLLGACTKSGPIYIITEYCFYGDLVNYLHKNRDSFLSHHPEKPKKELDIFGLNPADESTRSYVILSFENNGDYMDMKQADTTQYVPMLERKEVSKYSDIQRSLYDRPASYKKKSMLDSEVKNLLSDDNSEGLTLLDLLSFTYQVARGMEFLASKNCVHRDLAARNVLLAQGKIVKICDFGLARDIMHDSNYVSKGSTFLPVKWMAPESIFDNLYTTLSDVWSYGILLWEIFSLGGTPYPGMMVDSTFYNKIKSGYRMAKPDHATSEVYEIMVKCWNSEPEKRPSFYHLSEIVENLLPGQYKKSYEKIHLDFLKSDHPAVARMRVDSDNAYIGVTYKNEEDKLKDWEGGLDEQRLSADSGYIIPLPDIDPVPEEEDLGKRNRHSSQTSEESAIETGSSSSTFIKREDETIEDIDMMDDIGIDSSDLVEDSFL

T4 sequence (P07333 20-972 limits assumed): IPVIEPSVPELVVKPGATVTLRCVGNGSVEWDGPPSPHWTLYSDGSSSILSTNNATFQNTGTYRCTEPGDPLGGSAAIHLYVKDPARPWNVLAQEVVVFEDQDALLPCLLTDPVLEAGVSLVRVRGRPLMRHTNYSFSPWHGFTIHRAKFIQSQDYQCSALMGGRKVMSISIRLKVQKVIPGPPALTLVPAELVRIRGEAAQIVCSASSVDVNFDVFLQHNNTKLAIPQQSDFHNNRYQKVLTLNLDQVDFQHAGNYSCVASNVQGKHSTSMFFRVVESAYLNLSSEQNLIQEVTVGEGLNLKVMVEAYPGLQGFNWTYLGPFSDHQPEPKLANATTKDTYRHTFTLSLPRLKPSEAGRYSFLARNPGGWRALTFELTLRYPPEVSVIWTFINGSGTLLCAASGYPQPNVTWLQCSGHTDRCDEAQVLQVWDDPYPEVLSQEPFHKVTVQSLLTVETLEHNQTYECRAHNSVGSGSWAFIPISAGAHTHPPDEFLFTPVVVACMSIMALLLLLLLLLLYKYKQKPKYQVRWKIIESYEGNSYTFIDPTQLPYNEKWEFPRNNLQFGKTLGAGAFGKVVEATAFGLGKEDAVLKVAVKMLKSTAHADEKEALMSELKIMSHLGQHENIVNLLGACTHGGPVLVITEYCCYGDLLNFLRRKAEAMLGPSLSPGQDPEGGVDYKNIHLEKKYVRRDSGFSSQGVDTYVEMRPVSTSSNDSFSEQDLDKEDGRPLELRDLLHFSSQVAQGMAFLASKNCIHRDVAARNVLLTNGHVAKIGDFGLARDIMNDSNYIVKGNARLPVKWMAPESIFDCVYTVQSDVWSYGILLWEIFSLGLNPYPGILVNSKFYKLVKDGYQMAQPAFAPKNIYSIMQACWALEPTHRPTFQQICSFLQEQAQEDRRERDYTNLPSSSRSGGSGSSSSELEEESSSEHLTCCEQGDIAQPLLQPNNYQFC
T2 sequence (P10721 26-976 limits assumed): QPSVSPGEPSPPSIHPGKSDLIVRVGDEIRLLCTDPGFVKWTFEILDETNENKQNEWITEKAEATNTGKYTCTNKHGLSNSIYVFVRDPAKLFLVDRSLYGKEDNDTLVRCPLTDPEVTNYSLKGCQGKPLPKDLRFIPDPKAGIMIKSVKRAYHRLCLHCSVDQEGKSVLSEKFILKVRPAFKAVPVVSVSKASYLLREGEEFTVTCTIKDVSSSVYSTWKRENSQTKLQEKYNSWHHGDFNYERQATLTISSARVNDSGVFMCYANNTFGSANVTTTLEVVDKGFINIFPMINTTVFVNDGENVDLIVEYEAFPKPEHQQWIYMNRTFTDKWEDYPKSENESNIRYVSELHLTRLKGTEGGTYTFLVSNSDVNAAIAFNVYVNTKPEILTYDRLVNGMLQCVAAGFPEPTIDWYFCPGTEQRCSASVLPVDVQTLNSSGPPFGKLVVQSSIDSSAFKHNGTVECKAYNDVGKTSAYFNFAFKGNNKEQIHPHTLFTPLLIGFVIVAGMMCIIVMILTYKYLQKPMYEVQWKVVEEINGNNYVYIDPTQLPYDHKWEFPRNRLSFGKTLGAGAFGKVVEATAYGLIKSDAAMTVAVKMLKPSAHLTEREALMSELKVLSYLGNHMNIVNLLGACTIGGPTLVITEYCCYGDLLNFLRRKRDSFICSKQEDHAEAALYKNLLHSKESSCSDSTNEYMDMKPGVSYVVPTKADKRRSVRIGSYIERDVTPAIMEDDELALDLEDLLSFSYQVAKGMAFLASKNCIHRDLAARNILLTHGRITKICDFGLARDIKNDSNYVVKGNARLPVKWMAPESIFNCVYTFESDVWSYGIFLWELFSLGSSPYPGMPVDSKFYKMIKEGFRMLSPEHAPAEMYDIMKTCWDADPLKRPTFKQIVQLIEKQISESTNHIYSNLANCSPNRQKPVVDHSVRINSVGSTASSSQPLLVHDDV
T1 sequence (P35968 20-1356 limits assumed): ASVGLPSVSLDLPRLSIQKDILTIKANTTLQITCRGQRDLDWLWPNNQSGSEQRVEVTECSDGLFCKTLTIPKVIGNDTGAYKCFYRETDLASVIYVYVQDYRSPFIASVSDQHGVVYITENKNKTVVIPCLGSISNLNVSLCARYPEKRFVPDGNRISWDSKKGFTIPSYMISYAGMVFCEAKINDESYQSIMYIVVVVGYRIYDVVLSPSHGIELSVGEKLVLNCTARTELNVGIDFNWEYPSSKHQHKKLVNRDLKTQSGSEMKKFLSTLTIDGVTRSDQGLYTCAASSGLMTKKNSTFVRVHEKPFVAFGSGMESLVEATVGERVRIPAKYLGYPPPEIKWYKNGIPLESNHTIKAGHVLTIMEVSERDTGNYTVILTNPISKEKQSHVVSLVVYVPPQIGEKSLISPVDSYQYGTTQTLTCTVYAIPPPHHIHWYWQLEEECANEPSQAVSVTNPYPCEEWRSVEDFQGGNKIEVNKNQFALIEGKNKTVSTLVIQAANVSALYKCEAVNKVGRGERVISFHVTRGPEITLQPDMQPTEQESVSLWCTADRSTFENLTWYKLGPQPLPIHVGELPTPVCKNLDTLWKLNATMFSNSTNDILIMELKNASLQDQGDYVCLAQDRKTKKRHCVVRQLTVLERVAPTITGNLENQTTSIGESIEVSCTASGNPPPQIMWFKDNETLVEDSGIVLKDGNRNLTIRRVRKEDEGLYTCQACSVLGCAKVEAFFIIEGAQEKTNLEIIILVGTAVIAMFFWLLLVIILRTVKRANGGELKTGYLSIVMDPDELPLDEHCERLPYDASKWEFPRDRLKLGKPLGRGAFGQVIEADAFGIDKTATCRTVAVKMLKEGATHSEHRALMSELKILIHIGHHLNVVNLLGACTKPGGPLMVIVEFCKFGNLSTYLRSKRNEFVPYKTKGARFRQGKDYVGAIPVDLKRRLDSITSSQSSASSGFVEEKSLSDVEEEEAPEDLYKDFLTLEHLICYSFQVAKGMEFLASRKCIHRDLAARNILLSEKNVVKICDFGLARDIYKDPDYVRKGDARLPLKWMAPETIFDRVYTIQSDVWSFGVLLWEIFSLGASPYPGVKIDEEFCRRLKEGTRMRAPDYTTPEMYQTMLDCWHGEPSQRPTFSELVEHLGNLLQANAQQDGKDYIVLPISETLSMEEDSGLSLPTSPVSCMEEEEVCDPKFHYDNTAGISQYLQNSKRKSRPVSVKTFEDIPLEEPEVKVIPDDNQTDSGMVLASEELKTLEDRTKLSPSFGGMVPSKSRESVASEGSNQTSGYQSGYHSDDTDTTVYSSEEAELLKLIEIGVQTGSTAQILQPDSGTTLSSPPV

B1: Humanized clone 3 of 20D9 (VH3 + VK1) (antibody, human IgG1, kappa)
heavy: not shown
light: DIQMTQSPSVLSASVGDRVTINCRASQNINKELNWYQQKLGEAPKLLIYNTNNLQSGVPSRFSGSGSGTDYTLTISSLQPEDVATYFCFQHKSWPLTFGSGTKLEIKRTVAAPSVFIFPPSDEQLKSGTASVVCLLNNFYPREAKVQWKVDNALQSGNSQESVTEQDSKDSTYSLSSTLTLSKADYEKHKVYACEVTHQGLSSPVTKSFNRGEC
notes: also called candidate #3; #3 mab
- binding result (VEGFR-2 on Ba/F3 cells): no binding
- binding result (c-KIT on Ba/F3 cells): no binding
- binding result [1]: no binding
- binding result (CSF1R on Ba/F3 cells): no binding
- Kd [2]: 0.0113 µg/mL
- binding result (PDGFRα on Ba/F3 cells): no binding

From patent publication US20250049939A1 (TUBULIS, published 2025)
